T1: MPP7, Q5T2T1
T1 sequence (Q5T2T1 134-230, limits assumed, looked up): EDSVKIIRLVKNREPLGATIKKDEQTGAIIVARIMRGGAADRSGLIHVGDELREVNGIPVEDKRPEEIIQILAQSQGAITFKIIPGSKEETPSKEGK

T2: DFNB31_2, Q9P202
T2 sequence (Q9P202 274-371, limits assumed, looked up): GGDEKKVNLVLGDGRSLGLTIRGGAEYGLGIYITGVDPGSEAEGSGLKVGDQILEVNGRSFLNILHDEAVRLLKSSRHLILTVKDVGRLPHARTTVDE

T3: GRIP1_4, Q9Y3R0
T3 sequence (Q9Y3R0 467-571, limits assumed, looked up): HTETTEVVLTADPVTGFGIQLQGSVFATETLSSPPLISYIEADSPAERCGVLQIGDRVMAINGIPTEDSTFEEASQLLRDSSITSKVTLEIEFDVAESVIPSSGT

T4: PDZD2_2, O15018
T4 sequence (O15018 329-429, limits assumed, looked up): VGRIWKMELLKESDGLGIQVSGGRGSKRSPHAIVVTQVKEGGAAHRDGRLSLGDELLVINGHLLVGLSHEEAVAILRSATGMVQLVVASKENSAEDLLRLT

T5: DLG3_2, Q92796
T5 sequence (Q92796 221-321, limits assumed, looked up): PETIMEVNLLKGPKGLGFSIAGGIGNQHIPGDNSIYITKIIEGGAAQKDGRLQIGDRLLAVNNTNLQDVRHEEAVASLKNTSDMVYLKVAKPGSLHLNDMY

T6: MPDZ_10, O75970
T6 sequence (O75970 1624-1722, limits assumed, looked up): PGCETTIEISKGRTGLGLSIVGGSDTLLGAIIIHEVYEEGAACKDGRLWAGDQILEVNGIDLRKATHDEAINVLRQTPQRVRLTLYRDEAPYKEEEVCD

T7: DFNB31_3, Q9P202
T7 sequence (Q9P202 811-907, limits assumed, looked up): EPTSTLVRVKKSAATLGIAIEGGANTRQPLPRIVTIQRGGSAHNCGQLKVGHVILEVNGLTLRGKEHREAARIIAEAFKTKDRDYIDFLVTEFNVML

T8: PDZRN3_1, Q9UPQ7
T8 sequence (Q9UPQ7 244-349, limits assumed, looked up): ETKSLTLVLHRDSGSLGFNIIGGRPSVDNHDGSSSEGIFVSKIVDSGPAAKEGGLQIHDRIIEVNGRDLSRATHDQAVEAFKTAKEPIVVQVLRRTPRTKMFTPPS

T9: ARHGAP21, Q5T5U3
T9 sequence (Q5T5U3 45-169, limits assumed, looked up): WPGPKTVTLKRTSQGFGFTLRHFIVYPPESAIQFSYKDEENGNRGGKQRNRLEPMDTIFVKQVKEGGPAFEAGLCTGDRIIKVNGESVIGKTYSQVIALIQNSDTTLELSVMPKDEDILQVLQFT

T10: MPDZ_5, O75970
T10 sequence (O75970 695-796, limits assumed, looked up): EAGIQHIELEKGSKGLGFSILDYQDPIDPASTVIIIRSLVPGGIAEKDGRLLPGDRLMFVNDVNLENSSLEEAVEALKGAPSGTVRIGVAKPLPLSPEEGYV

T11: MPDZ_12, O75970
T11 sequence (O75970 1857-1958, limits assumed, looked up): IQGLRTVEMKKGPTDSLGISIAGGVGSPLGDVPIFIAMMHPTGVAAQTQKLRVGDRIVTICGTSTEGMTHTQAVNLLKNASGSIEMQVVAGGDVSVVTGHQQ

T12: SNTA1, Q13424
T12 sequence (Q13424 82-180, limits assumed, looked up): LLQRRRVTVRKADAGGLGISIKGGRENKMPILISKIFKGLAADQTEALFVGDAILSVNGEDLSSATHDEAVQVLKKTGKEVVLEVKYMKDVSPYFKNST

T13: TX1BP3, O14907
T13 sequence (O14907 10-122, limits assumed, looked up): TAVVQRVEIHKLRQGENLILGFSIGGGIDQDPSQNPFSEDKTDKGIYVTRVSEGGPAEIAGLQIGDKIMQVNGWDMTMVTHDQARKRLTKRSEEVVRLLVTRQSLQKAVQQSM


The binders below were run against T1, MPP7, Q5T2T1 (assay: holdup assay). Conditions: plain residues with an end cap or a label only (N-terminal biotin on a linker: ado-ado).
Parameters: key: below the threshold = too weak to quantify, mostly under pKd 3.1 to 4

pKd	Binder
below the threshold	SRSVVESDEL [MYPN, Q86TC9]
below the threshold	KSRVAFFEEL [NF2, P35240;P35240-1]

Each binder was assayed against Inadl_3, Q8NI35 (assay: holdup assay). Conditions: plain residues with an end cap or a label only (N-terminal biotin on a linker: ado-ado).
Sequence of Inadl_3, Q8NI35 (Q8NI35 359-469): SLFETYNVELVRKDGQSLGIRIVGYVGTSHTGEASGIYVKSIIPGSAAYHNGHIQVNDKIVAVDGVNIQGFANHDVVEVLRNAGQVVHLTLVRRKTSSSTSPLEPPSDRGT
Parameters: key: below the threshold = too weak to quantify, mostly under pKd 3.1 to 4

pKd	Binder
below the threshold	SRSVVESDEL [MYPN, Q86TC9]
4.28	KSRVAFFEEL [NF2, P35240;P35240-1]

The binders below were run against HTRA1, Q92743 (assay: holdup assay). Conditions: plain residues with an end cap or a label only (N-terminal biotin on a linker: ado-ado).
Sequence of HTRA1, Q92743 (Q92743 360-477): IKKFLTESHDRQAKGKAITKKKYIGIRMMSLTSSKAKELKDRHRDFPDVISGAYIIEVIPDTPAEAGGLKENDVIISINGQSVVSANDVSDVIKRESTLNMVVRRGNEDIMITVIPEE
Parameters: key: below the threshold = too weak to quantify, mostly under pKd 3.1 to 4

pKd	Binder
3.69	SRSVVESDEL [MYPN, Q86TC9]
4.51	KSRVAFFEEL [NF2, P35240;P35240-1]

These binders were tested against T2, DFNB31_2, Q9P202 (assay: holdup assay). Conditions: plain residues with an end cap or a label only (N-terminal biotin on a linker: ado-ado).
Parameters: key: below the threshold = too weak to quantify, mostly under pKd 3.1 to 4

pKd	Binder
below the threshold	SRSVVESDEL [MYPN, Q86TC9]
below the threshold	KSRVAFFEEL [NF2, P35240;P35240-1]

These binders were tested against T3, GRIP1_4, Q9Y3R0 (assay: holdup assay). Conditions: plain residues with an end cap or a label only (N-terminal biotin on a linker: ado-ado).
Parameters: key: below the threshold = too weak to quantify, mostly under pKd 3.1 to 4

pKd	Binder
below the threshold	SRSVVESDEL [MYPN, Q86TC9]
below the threshold	KSRVAFFEEL [NF2, P35240;P35240-1]

Each binder was assayed against Inadl_4, Q8NI35 (assay: holdup assay). Conditions: plain residues with an end cap or a label only (N-terminal biotin on a linker: ado-ado).
Sequence of Inadl_4, Q8NI35 (Q8NI35 547-651): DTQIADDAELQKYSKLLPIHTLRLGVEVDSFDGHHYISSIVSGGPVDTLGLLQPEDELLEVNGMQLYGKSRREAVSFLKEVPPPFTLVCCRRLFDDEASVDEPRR
Parameters: key: below the threshold = too weak to quantify, mostly under pKd 3.1 to 4

pKd	Binder
below the threshold	SRSVVESDEL [MYPN, Q86TC9]
below the threshold	KSRVAFFEEL [NF2, P35240;P35240-1]

These binders were tested against T4, PDZD2_2, O15018 (assay: holdup assay). Conditions: plain residues with an end cap or a label only (N-terminal biotin on a linker: ado-ado).
Parameters: key: below the threshold = too weak to quantify, mostly under pKd 3.1 to 4

pKd	Binder
below the threshold	SRSVVESDEL [MYPN, Q86TC9]

The binders below were run against MAGI3_2, Q5TCQ9 (assay: holdup assay). Conditions: plain residues with an end cap or a label only (N-terminal biotin on a linker: ado-ado).
Sequence of MAGI3_2, Q5TCQ9 (Q5TCQ9 398-503): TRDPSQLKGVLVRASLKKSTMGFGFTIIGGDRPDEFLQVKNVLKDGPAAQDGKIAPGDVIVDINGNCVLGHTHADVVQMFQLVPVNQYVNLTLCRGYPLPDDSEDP
Parameters: key: below the threshold = too weak to quantify, mostly under pKd 3.1 to 4

pKd	Binder
below the threshold	SRSVVESDEL [MYPN, Q86TC9]
below the threshold	KSRVAFFEEL [NF2, P35240;P35240-1]

Each binder was assayed against T5, DLG3_2, Q92796 (assay: holdup assay). Conditions: plain residues with an end cap or a label only (N-terminal biotin on a linker: ado-ado).
Parameters: key: below the threshold = too weak to quantify, mostly under pKd 3.1 to 4

pKd	Binder
below the threshold	SRSVVESDEL [MYPN, Q86TC9]
below the threshold	KSRVAFFEEL [NF2, P35240;P35240-1]

The binders below were run against PDLIM1, O00151 (assay: holdup assay). Conditions: plain residues with an end cap or a label only (N-terminal biotin on a linker: ado-ado).
Sequence of PDLIM1, O00151 (O00151 1-87): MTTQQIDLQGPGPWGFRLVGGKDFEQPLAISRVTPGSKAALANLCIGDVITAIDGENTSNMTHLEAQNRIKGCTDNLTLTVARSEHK
Parameters: key: below the threshold = too weak to quantify, mostly under pKd 3.1 to 4

pKd	Binder
5.11	SRSVVESDEL [MYPN, Q86TC9]

What follows are binders tested against MAGI2_2, Q86UL8 (assay: holdup assay). Conditions: plain residues with an end cap or a label only (N-terminal biotin on a linker: ado-ado).
Sequence of MAGI2_2, Q86UL8 (Q86UL8 410-522): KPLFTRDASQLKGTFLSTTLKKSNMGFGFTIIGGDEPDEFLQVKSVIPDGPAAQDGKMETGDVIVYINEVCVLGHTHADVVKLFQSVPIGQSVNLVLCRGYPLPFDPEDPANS
Parameters: key: below the threshold = too weak to quantify, mostly under pKd 3.1 to 4

pKd	Binder
below the threshold	SRSVVESDEL [MYPN, Q86TC9]
below the threshold	KSRVAFFEEL [NF2, P35240;P35240-1]

What follows are binders tested against IL16_1, Q14005 (assay: holdup assay). Conditions: plain residues with an end cap or a label only (N-terminal biotin on a linker: ado-ado).
Sequence of IL16_1, Q14005 (Q14005 210-306): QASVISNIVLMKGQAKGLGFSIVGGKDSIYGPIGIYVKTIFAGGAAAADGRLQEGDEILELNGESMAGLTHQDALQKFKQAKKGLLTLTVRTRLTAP
Parameters: key: below the threshold = too weak to quantify, mostly under pKd 3.1 to 4

pKd	Binder
below the threshold	SRSVVESDEL [MYPN, Q86TC9]

The binders below were run against T6, MPDZ_10, O75970 (assay: holdup assay). Conditions: plain residues with an end cap or a label only (N-terminal biotin on a linker: ado-ado).
Parameters: key: below the threshold = too weak to quantify, mostly under pKd 3.1 to 4

pKd	Binder
below the threshold	SRSVVESDEL [MYPN, Q86TC9]
below the threshold	KSRVAFFEEL [NF2, P35240;P35240-1]

These binders were tested against GRIP2_6, Q9C0E4 (assay: holdup assay). Conditions: plain residues with an end cap or a label only (N-terminal biotin on a linker: ado-ado).
Sequence of GRIP2_6, Q9C0E4 (Q9C0E4 648-740): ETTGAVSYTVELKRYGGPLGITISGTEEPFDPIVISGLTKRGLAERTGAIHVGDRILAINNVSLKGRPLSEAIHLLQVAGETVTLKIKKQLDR
Parameters: key: below the threshold = too weak to quantify, mostly under pKd 3.1 to 4

pKd	Binder
3.95	SRSVVESDEL [MYPN, Q86TC9]

These binders were tested against T7, DFNB31_3, Q9P202 (assay: holdup assay). Conditions: plain residues with an end cap or a label only (N-terminal biotin on a linker: ado-ado).
Parameters: key: below the threshold = too weak to quantify, mostly under pKd 3.1 to 4

pKd	Binder
below the threshold	SRSVVESDEL [MYPN, Q86TC9]
below the threshold	KSRVAFFEEL [NF2, P35240;P35240-1]

The binders below were run against T8, PDZRN3_1, Q9UPQ7 (assay: holdup assay). Conditions: plain residues with an end cap or a label only (N-terminal biotin on a linker: ado-ado).
Parameters: key: below the threshold = too weak to quantify, mostly under pKd 3.1 to 4

pKd	Binder
below the threshold	SRSVVESDEL [MYPN, Q86TC9]

What follows are binders tested against T9, ARHGAP21, Q5T5U3 (assay: holdup assay). Conditions: plain residues with an end cap or a label only (N-terminal biotin on a linker: ado-ado).
Parameters: key: below the threshold = too weak to quantify, mostly under pKd 3.1 to 4

pKd	Binder
3.51	SRSVVESDEL [MYPN, Q86TC9]
below the threshold	KSRVAFFEEL [NF2, P35240;P35240-1]

Each binder was assayed against T10, MPDZ_5, O75970 (assay: holdup assay). Conditions: plain residues with an end cap or a label only (N-terminal biotin on a linker: ado-ado).
Parameters: key: below the threshold = too weak to quantify, mostly under pKd 3.1 to 4

pKd	Binder
below the threshold	SRSVVESDEL [MYPN, Q86TC9]
below the threshold	KSRVAFFEEL [NF2, P35240;P35240-1]

The binders below were run against T11, MPDZ_12, O75970 (assay: holdup assay). Conditions: plain residues with an end cap or a label only (N-terminal biotin on a linker: ado-ado).
Parameters: key: below the threshold = too weak to quantify, mostly under pKd 3.1 to 4

pKd	Binder
below the threshold	SRSVVESDEL [MYPN, Q86TC9]
below the threshold	KSRVAFFEEL [NF2, P35240;P35240-1]

These binders were tested against T12, SNTA1, Q13424 (assay: holdup assay). Conditions: plain residues with an end cap or a label only (N-terminal biotin on a linker: ado-ado).
Parameters: key: below the threshold = too weak to quantify, mostly under pKd 3.1 to 4

pKd	Binder
3.6	SRSVVESDEL [MYPN, Q86TC9]
below the threshold	KSRVAFFEEL [NF2, P35240;P35240-1]

Each binder was assayed against T13, TX1BP3, O14907 (assay: holdup assay). Conditions: plain residues with an end cap or a label only (N-terminal biotin on a linker: ado-ado).
Parameters: key: below the threshold = too weak to quantify, mostly under pKd 3.1 to 4

pKd	Binder
below the threshold	SRSVVESDEL [MYPN, Q86TC9]
4.34	KSRVAFFEEL [NF2, P35240;P35240-1]

Each binder was assayed against LIMK2, P53671 (assay: holdup assay). Conditions: plain residues with an end cap or a label only (N-terminal biotin on a linker: ado-ado).
Sequence of LIMK2, P53671 (P53671 143-248): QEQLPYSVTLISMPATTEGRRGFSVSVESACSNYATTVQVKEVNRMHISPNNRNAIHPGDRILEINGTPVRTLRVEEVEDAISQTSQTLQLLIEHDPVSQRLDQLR
Parameters: key: below the threshold = too weak to quantify, mostly under pKd 3.1 to 4

pKd	Binder
below the threshold	SRSVVESDEL [MYPN, Q86TC9]
below the threshold	KSRVAFFEEL [NF2, P35240;P35240-1]

Each binder was assayed against FRMPD3, Q5JV73 (assay: holdup assay). Conditions: plain residues with an end cap or a label only (N-terminal biotin on a linker: ado-ado).
Sequence of FRMPD3, Q5JV73 (Q5JV73 12-100): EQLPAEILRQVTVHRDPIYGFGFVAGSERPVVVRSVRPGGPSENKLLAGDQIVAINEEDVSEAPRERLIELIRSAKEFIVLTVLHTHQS
Parameters: key: below the threshold = too weak to quantify, mostly under pKd 3.1 to 4

pKd	Binder
below the threshold	SRSVVESDEL [MYPN, Q86TC9]

Each binder was assayed against TJP1_2, Q07157 (assay: holdup assay). Conditions: plain residues with an end cap or a label only (N-terminal biotin on a linker: ado-ado).
Sequence of TJP1_2, Q07157 (Q07157 181-274): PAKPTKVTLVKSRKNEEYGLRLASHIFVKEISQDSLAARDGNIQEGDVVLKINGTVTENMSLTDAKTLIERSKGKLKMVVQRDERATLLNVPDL
Parameters: key: below the threshold = too weak to quantify, mostly under pKd 3.1 to 4

pKd	Binder
3.51	SRSVVESDEL [MYPN, Q86TC9]

From publication PMC9482650, “Quantitative fragmentomics allow affinity mapping of interactomes” (Nature Communications, 2022)
